Measured values reported in patent US20250090676A1 (SUTRO BIOPHARMA, published 2025).

Experiments:
[1] = molecular target: T1, human folate receptor alpha (hFOLR1) (human, UniProt P15328 25-234); test: FACS, CHO-hFOLR1 cells;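 further: flow cytometry of serially diluted antibodies binding CHO cells stably expressing the receptor, 60 min on ice, mixed with dye-tagged parental CHO as background control, one-site specific fit with Hill slope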
T1 construct: endogenous on FOLR1-positive KB and Igrov1 cells (cell killing); also called human FolR1; FolRα
T1 sequence (P15328 25-234 limits assumed): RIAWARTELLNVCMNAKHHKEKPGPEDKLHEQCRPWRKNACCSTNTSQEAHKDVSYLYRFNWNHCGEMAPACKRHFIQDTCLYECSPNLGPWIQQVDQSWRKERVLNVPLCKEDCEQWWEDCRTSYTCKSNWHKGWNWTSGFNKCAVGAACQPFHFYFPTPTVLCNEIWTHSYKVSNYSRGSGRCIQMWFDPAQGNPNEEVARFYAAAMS

[2] = molecular target: T2, cynomolgus monkey folate receptor alpha (cynomolgus monkey, UniProt P15328 25-234 (human entry)); test: FACS, CHO-cFOLR1 cells
T2 construct: Expressed on the surface of stably transfected CHO cells; also called cyno FolR1; CHO-cyno FolR1
T2 sequence (P15328 other isoform, or with tags, fused parts or gaps limits assumed): as the sequence (P15328 25-234 limits assumed) above, with I2T, W4R, R37K, Q117R, A146P, H171Y counted along it

[3] = molecular target: T1, human folate receptor alpha (hFOLR1); test: cell-based or functional assay
[4] = molecular target: T3, murine folate receptor alpha (mouse, UniProt P35846 25-232); test: FACS, CHO-mFOLR1 cells;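 further: flow cytometry binding of serially diluted test antibodies to transfected CHO cells on ice, mean fluorescence intensity, parental CHO cells give background, Kd from one-site specific binding fit with Hill slope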
T3 construct: Expressed on the surface of stably transfected CHO cells; also called mouse FolR1; CHO-mouse FolR1
T3 sequence (P35846 25-232 limits assumed): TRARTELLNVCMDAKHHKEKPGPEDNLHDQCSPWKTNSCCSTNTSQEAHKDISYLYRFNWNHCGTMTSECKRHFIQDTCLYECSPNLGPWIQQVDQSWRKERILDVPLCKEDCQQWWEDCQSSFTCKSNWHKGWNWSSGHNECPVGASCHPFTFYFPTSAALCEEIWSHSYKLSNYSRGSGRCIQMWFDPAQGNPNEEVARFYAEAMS

| Binder | Bmax (MFI) [1] [MFI] | Kd [1] [nM] | Bmax (MFI) [2] [MFI] | Kd [2] [nM] | Bmax (MFI) [4] [MFI] | Kd [4] [nM] | binding result [4] | Igrov, 2° Antibody Cell Killing, Nb-SC239: EC50 [3] [nM] | Igrov, 2° Antibody Cell Killing, Nb-SC239: Span [3] [%] | KB, 2° Antibody Cell Killing, Nb-239: EC50 [3] [nM] | KB, 2° Antibody Cell Killing, Nb-239: Span [3] [%] |
| --- | --- | --- | --- | --- | --- | --- | --- | --- | --- | --- | --- |
| SRP1848-A08 (antibody, V domains shown, HC variant paired with trastuzumab LC, cell-free expressed, HIS- and FLAG-tagged; also called Antibody 6) VH: EVQLVESGGGLVQPGGSLRLSCAASGSNIRKHSIHWVRQAPGKGLEWVGSIYPNDGTTDYADSVKGRFTISADTSKNTAYLQMNSLRAEDTAVYYCARGSWFWRAGYGYYLDYWGQGTLVTVSS VL: not shown | 28600 | 0.62 | 26200 | 0.45 | 3200 | 2.5 | – | 0.013 | 65 | 0.039 | 93 |
| SRP1848-B03 (antibody, V domains shown, HC variant paired with trastuzumab LC, cell-free expressed, HIS- and FLAG-tagged; also called Antibody 10) VH: EVQLVESGGGLVQPGGSLRLSCAASGFNISMKYIHWVRQAPGKGLEWVGGITPIDGMTDYADSVKGRFTISADTSKNTAYLQMNSLRAEDTAVYYCARGSWSWPSGYSYYLDYWGQGTLVTVSS VL: not shown | 26300 | 0.82 | 17200 | 0.41 | 2720 | 6.4 | – | 0.028 | 66 | 0.05 | 94 |
| SRP1848-A10 (antibody, V domains shown, HC variant paired with trastuzumab LC, cell-free expressed, HIS- and FLAG-tagged; also called Antibody 8) VH: EVQLVESGGGLVQPGGSLRLSCAASGFNIRKYSIHWARQAPGKGLEWVGDIFPIDDITDYADSVKGRFTISADTSKNTAYLQMNSLRAEDTAVYYCARGSWSWPSGHSYYLDYWGQGTLVTVSS VL: not shown | 27100 | 0.66 | 14800 | 0.47 | 10200 | 1.2 | – | 0.027 | 75 | 0.033 | 96 |
| SRP1848-B05 (antibody, V domains shown, HC variant paired with trastuzumab LC, cell-free expressed, HIS- and FLAG-tagged; also called Antibody 12) VH: EVQLVESGGGLVQPGGSLRLSCAASGFNISNYYIHWVRQAPGKGLEWVGGISPIDGYTDYADSMKGRFTISADTSKNTAYLQMSSLRAEDTAVYYCARGSWFWQSGYGYYLDYWGQGTLVTVSS VL: not shown | 24500 | 0.65 | 21900 | 0.64 | – | – | no binding | 0.04 | 72 | 0.065 | 94 |

The remaining binders from weak to strong by Kd [1], led by results:

| Bmax (MFI) [1] [MFI] | Kd [1] [nM] | Bmax (MFI) [2] [MFI] | Kd [2] [nM] | Bmax (MFI) [4] [MFI] | Kd [4] [nM] | binding result [4] | Binder | Igrov, 2° Antibody Cell Killing, Nb-SC239: EC50 [3] [nM] | Igrov, 2° Antibody Cell Killing, Nb-SC239: Span [3] [%] | KB, 2° Antibody Cell Killing, Nb-239: EC50 [3] [nM] | KB, 2° Antibody Cell Killing, Nb-239: Span [3] [%] |
| --- | --- | --- | --- | --- | --- | --- | --- | --- | --- | --- | --- |
| 26600 | 1.06 | 23900 | 0.83 | 3400 | 16.4 | – | SRP1848-B01 (antibody, V domains shown, HC variant paired with trastuzumab LC, cell-free expressed, HIS- and FLAG-tagged; also called Antibody 9) VH: EVQLVESGGGLVQPGGSLRLSCAASGFNIRNYSIHWVRQAPGKGLEWVGEIYPVDGITDYADSVKGRFTISADTSKNTAYLQMNSLRAEDTAVYYCARGFWSWPSGYSYFLDYWGQGTLVTVSS VL: not shown | 0.031 | 82 | 0.064 | 95 |
| 27800 | 0.72 | 27800 | 0.65 | 2190 | 17.9 | – | SRP1848-B04 (antibody, V domains shown, HC variant paired with trastuzumab LC, cell-free expressed, HIS- and FLAG-tagged; also called Antibody 11) VH: EVQLVESGGGLVQPGGSLRLSCAASSFNISNHSIHWVRQAPGKGLEWVGEIYPVDGITDYADSVKGRFTISADTSKNTAYLQMNSLRAEDTAVYYCARGRYSWRAGYSYYLDYWGQGTLVTVSS VL: not shown | 0.018 | 70 | 0.035 | 94 |
| 28900 | 0.61 | 20200 | 0.31 | 7990 | 1 | – | SRP1848-A09 (antibody, V domains shown, HC variant paired with trastuzumab LC, cell-free expressed, HIS- and FLAG-tagged; also called Antibody 7) VH: EVQLVESGGGLVQPGGSLRLSCAASGFNIRKQSIHWVRQAPGKGLEWVGSIFPNDGTTDYADSVKGRFTISADTSKNTAYLQVNSLRAEDTAVYYCARGSWFWRSGYGYFLEYWGQGTLVTVSS VL: not shown | 0.026 | 71 | – | 93 |
